These results are taken from patent publication US20120316071A1 (published 2012).

B1: Fab VH5-51_IGHD5-18*01>3_IGHJ4*01 G100K/G104T G24T/S28R/G35V (KT TRV) & V3-4_IGLJ1*01 V91L/S96P (LP) (Fab, V domains shown)
VH: EVQLVQSGAEVKKPGESLKISCKTSGYRFTSYWIVWVRQMPGKGLEWMGIIYPGDSDTRYSPSFQGQVTISADKSISTAYLQWSSLKASDTAMYYCARRKYSYTYDYFDYWGQGTLVTVSS
VL: QTVVTQEPSFSVSPGGTVTLTCGLSSGSVSTSYYPSWYQQTPGQAPRTLIYSTNTRSSGVPDRFSGSILGNKAALTITGAQADDESDYYCLLYMGPGISYVFGTGTKVTVL
notes: Fab; Expressed in E. coli with CH1 (plasmid A, His6 and Flag tags) and lambda CL (plasmid E); also called H:KT TRV & L:LP
B2: Fab VH5-51_IGHD5-18*01>3_IGHJ4*01 G104T & V3-4_IGLJ1*01 (wildtype) (Fab, V domains shown)
VH: B1 VH with T24G, R28S, V35G, K100G
VL: B1 VL with L91V, P96S
notes: Fab; Expressed in E. coli with CH1 (plasmid A, His6 and Flag tags) and lambda CL (plasmid E); also called G104T & Wildtype
B3: Fab VH5-51_IGHD5-18*01>3_IGHJ4*01 G100K/G104T S28R (KT S28R) & V3-4_IGLJ1*01 (wildtype) (Fab, V domains shown)
VH: B1 VH with T24G, V35G
VL: B1 VL with L91V, P96S
notes: Fab; Expressed in E. coli with CH1 (plasmid A, His6 and Flag tags) and lambda CL (plasmid E); also called H:KT S28R & L:wt
B4: Fab VH5-51_IGHD5-18*01>3_IGHJ4*01 G100K/G104T G24A/S28R/G35V (KT ARV) & V3-4_IGLJ1*01 V91L/S96P S52P (Fab, V domains shown)
VH: B1 VH
VL: B1 VL with S52P
notes: Fab; Expressed in E. coli with CH1 (plasmid A, His6 and Flag tags) and lambda CL (plasmid E); also called G100K/G104T G24A/S28R/G35V & V91L/S96P S52P
B5: Fab VH5-51_IGHD5-18*01>3_IGHJ4*01 G100K/G104T G24A/S28R/G35V (KT ARV) & V3-4_IGLJ1*01 V91L/S96P S52I (Fab, V domains shown)
VH: B1 VH
VL: B1 VL with S52I
notes: Fab; Expressed in E. coli with CH1 (plasmid A, His6 and Flag tags) and lambda CL (plasmid E); also called G100K/G104T G24A/S28R/G35V & V91L/S96P S52I
B6: Fab VH5-51_IGHD5-18*01>3_IGHJ4*01 G100K/G104T G24T/S28R/G35V (KT TRV) & V3-4_IGLJ1*01 V91L/S96P S52G (LP S52G) (Fab, V domains shown)
VH: B1 VH
VL: B1 VL with S52G
notes: Fab; Expressed in E. coli with CH1 (plasmid A, His6 and Flag tags) and lambda CL (plasmid E); also called H:KT TRV & L:LP S52G
B7: Fab VH5-51_IGHD5-18*01>3_IGHJ4*01 G100K/G104T G24L/S28R/G35V (KT LRV) & V3-4_IGLJ1*01 V91L/S96P S52T (Fab, V domains shown)
VH: B1 VH
VL: B1 VL with S52T
notes: Fab; Expressed in E. coli with CH1 (plasmid A, His6 and Flag tags) and lambda CL (plasmid E); also called G100K/G104T G24L/S28R/G35V & V91L/S96P S52T
B8: Fab VH5-51_IGHD5-18*01>3_IGHJ4*01 G100K/G104T G24T/S28R/G35V (KT TRV) & V3-4_IGLJ1*01 V91L/S96P S52Y (Fab, V domains shown)
VH: B1 VH
VL: B1 VL with S52Y
notes: Fab; Expressed in E. coli with CH1 (plasmid A, His6 and Flag tags) and lambda CL (plasmid E); also called H:KT TRV & L:LP S52Y
B9: Fab VH5-51_IGHD5-18*01>3_IGHJ4*01 G100K/G104T G24L/S28R/G35V (KT LRV) & V3-4_IGLJ1*01 V91L/S96P S52M (Fab, V domains shown)
VH: B1 VH
VL: B1 VL with S52M
notes: Fab; Expressed in E. coli with CH1 (plasmid A, His6 and Flag tags) and lambda CL (plasmid E); also called G100K/G104T G24L/S28R/G35V & V91L/S96P S52M
B10: Fab VH5-51_IGHD5-18*01>3_IGHJ4*01 G100K/G104T G24L/S28R/G35V (KT LRV) & V3-4_IGLJ1*01 V91L/S96P S52F (Fab, V domains shown)
VH: B1 VH
VL: B1 VL with S52F
notes: Fab; Expressed in E. coli with CH1 (plasmid A, His6 and Flag tags) and lambda CL (plasmid E); also called G100K/G104T G24L/S28R/G35V & V91L/S96P S52F
B11: Fab VH5-51_IGHD5-18*01>3_IGHJ4*01 G100K/G104T G24A/S28R/G35V (KT ARV) & V3-4_IGLJ1*01 V91L/S96P S52V (Fab, V domains shown)
VH: B1 VH
VL: B1 VL with S52V
notes: Fab; Expressed in E. coli with CH1 (plasmid A, His6 and Flag tags) and lambda CL (plasmid E); The light-chain S52 variants were made on the KT TRV heavy chain (T0104); also called G100K/G104T G24A/S28R/G35V & V91L/S96P S52V
B12: Fab VH5-51_IGHD5-18*01>3_IGHJ4*01 G100K/G104T G24L/S28R/G35V (KT LRV) & V3-4_IGLJ1*01 V91L/S96P S52Q (Fab, V domains shown)
VH: B1 VH
VL: B1 VL with S52Q
notes: Fab; Expressed in E. coli with CH1 (plasmid A, His6 and Flag tags) and lambda CL (plasmid E); also called G100K/G104T G24L/S28R/G35V & V91L/S96P S52Q
B13: Fab VH5-51_IGHD5-18*01>3_IGHJ4*01 G100K/G104T G24T/S28R/G35V (KT TRV) & V3-4_IGLJ1*01 V91L/S96P S52L (Fab, V domains shown)
VH: B1 VH
VL: B1 VL with S52L
notes: Fab; Expressed in E. coli with CH1 (plasmid A, His6 and Flag tags) and lambda CL (plasmid E); also called H:KT TRV & L:LP S52L
B14: Fab VH5-51_IGHD5-18*01>3_IGHJ4*01 G100K/G104T G24A/S28R/G35V (KT ARV) & V3-4_IGLJ1*01 V91L/S96P S52H (Fab, V domains shown)
VH: B1 VH
VL: B1 VL with S52H
notes: Fab; Expressed in E. coli with CH1 (plasmid A, His6 and Flag tags) and lambda CL (plasmid E); Fab H:KT TRV & L:LP S52H; also called G100K/G104T G24A/S28R/G35V & V91L/S96P S52H
B15: Fab VH5-51_IGHD5-18*01>3_IGHJ4*01 G100K/G104T (H:KT) & V3-4_IGLJ1*01 G23A (Fab, V domains shown)
VH: B1 VH with T24G, R28S, V35G
VL: B1 VL with G23A, L91V, P96S
notes: Fab expressed in E. coli; Plasmid A adds CH1 with His6 and Flag tags to the heavy chain; Plasmid E adds lambda CL to the light chain; also called G100K/G104T & G23A

Changes are numbered by the printed parent chain. In names and notes the source's numbering stands.

One experiment has as its target T1, Recombinant Human DLL4 (delta-like protein 4) (human, UniProt Q9NR61 27-524).
T1 construct: Bought recombinant human DLL4 coated on the ELISA plate; also called rHuman DLL4
The experiment can be described thus: ELISA, DLL4 coated on plate, Fab at 50 nM (2-fold dilution series), absorbance at 450 nm.
For B1, the ELISA signal was determined as 0.81.

As for B2, the ELISA signal was 0.17.

Take B3: the ELISA signal came to 0.23.

Regarding B4, the ELISA signal stood at 0.79.

As for B5, the ELISA signal was 0.82.

Consider B6, for which the ELISA signal stood at 1.02.

In the case of B7, the ELISA signal turned out to be 0.79.

For the molecule B8, the ELISA signal was 0.72.

For B9, the ELISA signal worked out at 0.8.

With B10, the ELISA signal came out at 0.69.

For B11, the ELISA signal is 0.74.

Regarding B12, the ELISA signal came to 0.81.

In the case of B13, the ELISA signal was determined as 0.78.

Turning to B14, the ELISA signal worked out at 0.91.

In another experiment the target is T1, Recombinant Human DLL4 (delta-like …). The experiment can be described thus: ELISA, DLL4 coated on plate, Fab at 12.5 nM (2-fold dilution series), absorbance at 450 nm. On the technique in general: ELISA stands for enzyme-linked immunosorbent assay.
For the molecule B1, the ELISA signal turned out to be 0.45.

B2: the ELISA signal was 0.19.

Regarding B3, the ELISA signal is 0.18.

As to B4, the ELISA signal came to 0.43.

Take B5: the ELISA signal turned out to be 0.4.

As to B6, the ELISA signal was 0.63.

Regarding B7, the ELISA signal was found to be 0.41.

B8: the ELISA signal worked out at 0.41.

As to B9, the ELISA signal was 0.41.

Turning to B10, the ELISA signal amounted to 0.42.

In the case of B11, the ELISA signal came out at 0.43.

Consider B12, for which the ELISA signal is 0.47.

B13: the ELISA signal is 0.43.

B14: the ELISA signal came to 0.5.

Another experiment deals with T2, Recombinant Human DLL4 (R&D Systems Cat#1506-D4/CF) (human, UniProt Q9NR61 27-524).
T2 construct: Bought recombinant protein; also called delta-like protein 4; Delta-like 4
The experiment can be described thus: ECL (Meso Scale Discovery) multispot binding assay, DLL4 immobilised, Fab at 100 nM.
In the case of B15, the “ECL signal” value was found to be 13500.

The next experiment has as its target T1, Recombinant Human DLL4 (delta-like …). In words: ELISA, DLL4 coated on plate, Fab at 25 nM (2-fold dilution series), absorbance at 450 nm.
As for B1, the ELISA signal was 0.58.

In the case of B2, the ELISA signal turned out to be 0.18.

With B3, the ELISA signal was determined as 0.2.

In the case of B4, the ELISA signal came to 0.59.

As to B5, the ELISA signal was found to be 0.6.

For B6, the ELISA signal is 0.9.

Consider B7, for which the ELISA signal came out at 0.62.

On to B8, for which the ELISA signal was found to be 0.56.

For the molecule B9, the ELISA signal stood at 0.59.

With B10, the ELISA signal was 0.49.

As for B11, the ELISA signal is 0.6.

As to B12, the ELISA signal is 0.67.

Turning to B13, the ELISA signal was found to be 0.58.

B14: the ELISA signal came to 0.73.

The next experiment has the same target. In words: ELISA, DLL4 coated on plate, Fab at 100 nM (2-fold dilution series), absorbance at 450 nm.
Consider B1, for which the ELISA signal turned out to be 1.

On to B2, for which the ELISA signal is 0.17.

For the molecule B3, the ELISA signal came to 0.26.

As to B4, the ELISA signal came out at 1.

Consider B5, for which the ELISA signal is 1.04.

B6: the ELISA signal is 1.14.

For the molecule B7, the ELISA signal was determined as 0.99.

In the case of B8, the ELISA signal was determined as 0.9.

Consider B9, for which the ELISA signal amounted to 1.01.

As for B10, the ELISA signal was determined as 0.99.

With B11, the ELISA signal amounted to 0.95.

On to B12, for which the ELISA signal amounted to 0.96.

On to B13, for which the ELISA signal is 1.02.

Take B14: the ELISA signal was 1.09.
